According to patent US20080207501A1:

Molecular target: T1, amylin receptor (nucleus accumbens membranes prepared from rat brain) (rat), P32214
T1 chain 1: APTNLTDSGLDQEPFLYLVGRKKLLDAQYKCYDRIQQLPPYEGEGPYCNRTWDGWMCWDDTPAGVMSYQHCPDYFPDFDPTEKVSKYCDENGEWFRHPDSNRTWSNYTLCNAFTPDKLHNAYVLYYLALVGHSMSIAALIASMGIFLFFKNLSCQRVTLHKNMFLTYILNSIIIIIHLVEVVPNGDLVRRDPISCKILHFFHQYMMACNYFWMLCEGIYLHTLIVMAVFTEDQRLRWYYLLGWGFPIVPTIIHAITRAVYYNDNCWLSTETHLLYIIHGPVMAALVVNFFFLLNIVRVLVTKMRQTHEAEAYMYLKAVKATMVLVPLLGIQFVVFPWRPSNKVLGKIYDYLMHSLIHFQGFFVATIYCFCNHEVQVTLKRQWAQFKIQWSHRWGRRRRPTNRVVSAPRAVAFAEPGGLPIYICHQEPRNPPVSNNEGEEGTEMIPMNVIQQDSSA
T1 chain 2: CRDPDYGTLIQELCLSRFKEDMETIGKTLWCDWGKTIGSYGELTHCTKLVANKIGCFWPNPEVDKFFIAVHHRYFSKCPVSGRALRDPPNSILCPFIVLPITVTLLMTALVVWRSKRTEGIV
Experiment: radioligand displacement, 125I-rat amylin, rat nucleus accumbens membranes

IC50: 100 nM
Binder: CGNLSTCMLGTYTQDFNKFHTFPQTAIGVGAP (modifications not checked) [r/h Calcitonin]
